Here are results for two substances from PMC3928614.

For experiment [1], the target named is autophosphorylated G547 IRE1α (residues G547-L977, incubated with Mg/ATP) (human) (UniProt O75460).
In experiment [2] the target is GST-G547 IRE1α (His-GST-tagged IRE1α residues G547-L977) (UniProt O75460). Description: native gel or EMSA; native polyacrylamide gel of purified GST-G547 IRE1α and G547 IRE1α; conditions not given. On the technique in general: In EMSA bound probe runs differently from free probe, usually more slowly.
Experiment [3] has the same target.

For “autophosphorylated G547 IRE1α (residues G547-L977, incubated with Mg/ATP) (from UniProt O75460 547-977) (domain or fragment)”, in experiment [1], the RNase activity (FRET-derepression assay) against concentration of autophosphorylated G547 IRE1α; activity from 50 nM, maximal at 350 nM was 114 nM.

Take “GST-G547 IRE1α (His-GST-tagged IRE1α residues G547-L977) (from UniProt O75460 547-977)”: the stoichiometry N – broadly, a count of units in the complex or per binding partner – in experiment [2] was found to be 2. Moreover, the RNase activity (FRET derepression assay) of fully dephosphorylated GST-G547 IRE1α at 25 nM, the lowest concentration tested (% of full activity) in experiment [3] came to 70.
